The numbers were not newly measured in PMC9528458, which cites them from elsewhere.

For the data set, the target named is Axin DAX (Homo sapiens) (UniProt O15169).
Axin DAX (Homo sapiens), sequence (O15169 780-862): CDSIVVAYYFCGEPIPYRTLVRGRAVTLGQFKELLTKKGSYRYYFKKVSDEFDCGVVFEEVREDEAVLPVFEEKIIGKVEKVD

Dishevelled DIX, sequence (O14641 8-96): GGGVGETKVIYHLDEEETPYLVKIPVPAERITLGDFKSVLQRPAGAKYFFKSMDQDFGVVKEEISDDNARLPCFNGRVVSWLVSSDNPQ

One may read the Kd as the concentration at which binding is half-saturated. Consider Dishevelled DIX (from UniProt O14641), for which the Kd is 15 µM.
